From the RNAGym collection of RNA variant scans (doi:10.1101/gr.219683.116) come the findings set out here.

The labels stand for the following.
B1: mRNA-splicing (parent)
chain: AGUUGCUGCUGGGAGCUCCAGCACAGUGAAAUGGACAGAAGGGCAGAGCAA

Variants of B1 are the subject of this series. The experiment in a line: exon inclusion enrichment index; higher = more inclusion; WT1 exon 5 minigene, HEK293.
As to AGUUAGGGAUGGGAGCUCCAGCACAGUGAAAUGGACAGAAGCACAGAGCAA, the “exon inclusion enrichment index” value was found to be 0.0348.
The value for AGUUCACACAGGGAGCUCCAGCAGCGUGAAAUGGACAGAAGGGCAGAGCAA was 0.71; that for AGUUAGGACUGGGAGCUCCAGCACAGUGAAAUGGACAGAAGGGCAGAGCAA was 0.0142.
As to AGUUCUAAUCGGGAGCUCCAGCACAGUGAAAUGGACAGAAGGGCAGAGCAA, the “exon inclusion enrichment index” value was determined as 0.757.
AGUUACCACCGGGAGCUCCAGCACAGUGAAAUGGAAUGAAGGGCAGAGCAA: the “exon inclusion enrichment index” value stood at 1.07.
The value for AGUUCACACAGGGAGCUCCAGCACAGUGAAAUGGACAGUUGGGCAGAGCAA was 0.036.
The value for AGUUGACGACGGGAGCUCCAGCACAGUGAACUGGACAGAAGGGCAGAGCAA was 3.96; that for AGUUAUAUAUGGGAGCUCCAGCACAGUGAAAUGGACAGAAGUUCAGAGCAA was 0.23; that for AGUUGCCGCCGGGAGCUCCAGCACAGUGAAAUGGACAGAAGGGCAGAGCAA was 2.76.
The value for AGUUGACGACGGGAGCUCCAGCACAGUGAAAUGGACACUAGGGCAGAGCAA was 0.489; that for AGUUGACGACGGGAGCUACAGCACAGUGAAAUGGACAGAAGGGCAGAGCAA was 2.64.
On to AGUUACCACCGGGAGCUCCAGCACAGUACAAUGGACAGAAGGGCAGAGCAA, for which the “exon inclusion enrichment index” value was 1.44.
The value for AGUUACCACACGGAGCUCCAGCACAGUGAAAUGGACAGAAGGGCAGAGCAA was 1.63; that for AGUUACCACCGGGAGCUCCAGCACAGUGAAAUGGACAGAAGAUCAGAGCAA was 4.5.
The value for AGUUGCUGCUGGGAGCUCCAGACCAGUGAAAUGGACAGAAGGGCAGAGCAA was 2.97; that for AGUUAUAUAUGGGAGCUCCAGCACAGUGAAAUAAACAGAAGGGCAGAGCAA was 0.0009; that for AGUUAUAUAUGGGAGCUCCAGCACAGUGAAAUAUACAGAAGGGCAGAGCAA was 0.0125.
The value for AGUUAGGGAUGGGAGCGACAGCACAGUGAAAUGGACAGAAGGGCAGAGCAA was 0.00242; that for AGUUUGAUUUGGGAGCUCCAGCACAGUGAAAUGGACAGAAGGGCAGAGCAA was 0.198.
Consider AGUUCUUCUCGGGCACUCCAGCACAGUGAAAUGGACAGAAGGGCAGAGCAA, for which the “exon inclusion enrichment index” value was found to be 0.459.
The value for AGUUGACGACGGGAGCUCCAGCAGGGUGAAAUGGACAGAAGGGCAGAGCAA was 2.34; that for AGUCGCUGCUGGGAGCUCCAGCACAGUGAAAUGGACAGAAGGGCAGAGCAA was 0.365; that for AGUUUCUUUUGGGAGCUCCAGCACAGUGAAAUGGAAGGAAGGGCAGAGCAA was 0.0549.
The value for ACGUGAAGAAGGGAGCUCCAGCACAGUGAAAUGGACAGAAGGGCAGAGCAA was 1.14; that for AGUUCUUCUCGGGAGAUCCAGCACAGUGAAAUGGACAGAAGGGCAGAGCAA was 2.53; that for AGUUCUUCUCGGGAGCUCCAGCACAGUGAAAUGGACAGAAGGGCGCAGCAA was 2.3.
The value for AGUUCUUCUCGGGAGCUCCAGCACAGUGAAGUGGACAGAAGGGCAGAGCAA was 2.47.
Take AGUUUCUUUUGGGAGCUCCAGCACAGUGAAAUGGGCAGAAGGGCAGAGCAA: the “exon inclusion enrichment index” value was found to be 0.0347.
The value for AGUUUCUUUUGGGAGCUCCAGCACAGUGAAAUGGCCAGAAGGGCAGAGCAA was 0.0257; that for AGUUACCACCGGGAGCUCCAGCACAGUGAAAUGGACAGAUUGGCAGAGCAA was 1.26; that for AGUUAGGGAUUGGAGCUCCAGCACAGUGAAAUGGACAGAAGGGCAGAGCAA was 0.00542.
As to AGUUGAAGAAGGGAGCUUCAGCACAGUGAAAUGGACAGAAGGGCAGAGCAA, the “exon inclusion enrichment index” value is 0.387.
As to AGUUGCUGCUGGGAUUUCCAGCACAGUGAAAUGGACAGAAGGGCAGAGCAA, the “exon inclusion enrichment index” value was found to be 0.0329.
The value for AGUUGACGACGGGAGCUCCAGCACAGUGAAAUGGACUCAAGGGCAGAGCAA was 2.21; that for AGUUACCACCGGGAGCUCCAGCACAGUGAAAUGGACAGAAGGGCCGAGCAA was 2.28; that for AGUUACCACCGGGAGCUCCAGCACAGUGAAAUGGACAGAAGGGCAGCACAA was 1.74.
As for AGUUCGCGCCGGGAGCUCCAGCACAGUGAAAUGGACAGUGGGGCAGAGCAA, the “exon inclusion enrichment index” value came to 1.59.
Regarding AGUUUCUUUUGGGAGCUCCAAAACAGUGAAAUGGACAGAAGGGCAGAGCAA, the “exon inclusion enrichment index” value amounted to 0.0256.
Consider AGAGCACACAGGGAGCUCCAGCACAGUGAAAUGGACAGAAGGGCAGAGCAA, for which the “exon inclusion enrichment index” value came to 0.0901.
For AGUUUCUUUUGGGAGCUCCAGCCGAGUGAAAUGGACAGAAGGGCAGAGCAA, the “exon inclusion enrichment index” value amounted to 0.632.
As for AGUUGAGGACGGGAGCUCCAGCACAGUGAAAUGGACAGAAGGGCAGAGCAA, the “exon inclusion enrichment index” value is 0.53.
The value for AGUUGUCGCCGGGAGCUCCAGCACAGUGAAAUGGACAGAAGGGCAGAGCAA was 3.52; that for AGUUCACACAGGGAGCUCGUGCACAGUGAAAUGGACAGAAGGGCAGAGCAA was 0.0711; that for AGUUCGCGCCGGGAGCUCCAGCACAGUGAAAUGGACAGAAUGGCAGAGCAA was 3.2.
For the variant AGUUGAAGAAGGGAGCUCCAGCACAGUGAAAUGGACAGAAGGGCAGCCCAA, the “exon inclusion enrichment index” value is 0.797.
With AGUUAGGGAUGGGAGCUCCAGCACAGUGAAAUGGACAGAAGGGCGGAGCAA, the “exon inclusion enrichment index” value was 0.00308.
The value for AGUUGCUGCUGGGAGCUGUAGCACAGUGAAAUGGACAGAAGGGCAGAGCAA was 0.777; that for AGUUACCACCGGGUCCUCCAGCACAGUGAAAUGGACAGAAGGGCAGAGCAA was 1.01; that for AGUUAUAUAUGGGAGCUCCAGCACAGUAGAAUGGACAGAAGGGCAGAGCAA was 0.00353.
The value for AGUUCGCGCCGGGAGCUCCAGCACAGUGAAAUGGCGAGAAGGGCAGAGCAA was 2.6; that for AGUUGACGACGGGAGCUAAAGCACAGUGAAAUGGACAGAAGGGCAGAGCAA was 1.44; that for AGUUGCUGCUGGGAGCUCCAGCACAGUGAAAUGGAUUGAAGGGCAGAGCAA was 0.0501.
The value for AGUACCUUUUGGGAGCUCCAGCACAGUGAAAUGGACAGAAGGGCAGAGCAA was 0.718.
For AGUUGCUGCAGGGAGCUCCAGCACAGUGAAAUGGACAGAAGGGCAGAGCAA, the “exon inclusion enrichment index” value was 0.633.
The value for AGUUUCUUUUGGGAGCUACAGCACAGUGAAAUGGACAGAAGGGCAGAGCAA was 0.0931; that for AGUUCGCGCCGGGAGCUCCAGCCGAGUGAAAUGGACAGAAGGGCAGAGCAA was 5.29.
The value for AGUUGAAGAAGGGAGCUCCAGCACAGUGAAACAGACAGAAGGGCAGAGCAA was 0.27; that for AGUUGAAGAAGGGAGCUCCAGCACAGUGAAAUGGACCCAAGGGCAGAGCAA was 0.896; that for AGUUAUAUAUGGGAGCUCCAGCACAGUGAAAUGGACAGAAAGGCAGAGCAA was 0.0374.
The value for AGUUCACACAGGGAGCUCCAGCACAGUGAAAUGGACAGCUGGGCAGAGCAA was 0.0879.
Take AGUUGACGACGGGAGCUCUUGCACAGUGAAAUGGACAGAAGGGCAGAGCAA: the “exon inclusion enrichment index” value was found to be 2.13.
The value for AGUUCGCGCCGAGAGCUCCAGCACAGUGAAAUGGACAGAAGGGCAGAGCAA was 2.53; that for AGUUAGGGAUGGGAGCUCCAGCACAGGAAAAUGGACAGAAGGGCAGAGCAA was 0.00077; that for AGUUAGGGAUGGGAGCUCCAGCACAGUGAAAUGGACAGAUAGGCAGAGCAA was 0.000658.
The value for AGUUUCUUUUGGGAGCUCCAGCACAGUGAAAUGGACAGAAGGGCAUCGCAA was 0.55; that for AGUUGACGACGGGAGCACCAGCACAGUGAAAUGGACAGAAGGGCAGAGCAA was 3.36; that for AGUUGCUGCUGGGAGCUCCAGCACAGUGAAAUGGACAGCGGGGCAGAGCAA was 0.223.
The value for AGUUAGGGAUGGGAGCUCCAGCACAGUGAAAUGGAAAGAAGGGCAGAGCAA was 0.000983; that for AGUUGAAGAAGGGAGCUCCAGCACAGUGAACGGGACAGAAGGGCAGAGCAA was 1.02; that for AGUUGAAGAAGGACGCUCCAGCACAGUGAAAUGGACAGAAGGGCAGAGCAA was 2.82.
Regarding AGUUCGCGCCGGGAGGGCCAGCACAGUGAAAUGGACAGAAGGGCAGAGCAA, the “exon inclusion enrichment index” value amounted to 1.27.
The value for AGUUCGCGCCGGGAGCUCCAGCACAGUGAAAUGGACAGAAGGGCAUUGCAA was 3.93; that for AGUUAGGGAUGUGAGCUCCAGCACAGUGAAAUGGACAGAAGGGCAGAGCAA was 0.00152.
The value for AGUUCUUCUCGGGAGCUCCAGCACAGUGAAAUGGAGCGAAGGGCAGAGCAA was 0.671; that for AGUUGAAGAAGGGAGCUCCAGCACAGUGAAAUGGCUAGAAGGGCAGAGCAA was 0.0347; that for AGUUUCUUUUGGGAGCUCCAGCACAGUGAAAUUCACAGAAGGGCAGAGCAA was 0.0164.
The value for AGUUGCUGCUGGGAGCUCCAGCACAGUGAAAUGAGCAGAAGGGCAGAGCAA was 0.0204; that for AGUUUCUUUUGGGAGCUCCAGCACAGUGAAAUGGACAGAAGGGGAGAGCAA was 0.278; that for AGUUCACACAGGGAGCUCCAGCACCGUGAAAUGGACAGAAGGGCAGAGCAA was 0.77.
AGUUACCACCGGGAGCUCCGGCACAGUGAAAUGGACAGAAGGGCAGAGCAA: the “exon inclusion enrichment index” value amounted to 2.79.
The value for AGUUCACGACGGGAGCUCCAGCACAGUGAAAUGGACAGAAGGGCAGAGCAA was 2.61; that for AGUUAUAUAUGGGAGCUCCAGCACAGUGAAAUGGGGAGAAGGGCAGAGCAA was 0.00488.
The value for AGUUAGGGAGUGGAGCUCCAGCACAGUGAAAUGGACAGAAGGGCAGAGCAA was 0.00152; that for AGUUGGUCUCGGGAGCUCCAGCACAGUGAAAUGGACAGAAGGGCAGAGCAA was 0.97; that for AGUUCUUCUCGGGAGCUCCAGCACAGUGAAAUGGACAGAAGUGCAGAGCAA was 2.42.
The value for AGUUCGCGCAGGGAGCUCCAGCACAGUGAAAUGGACAGAAGGGCAGAGCAA was 1.02.
As to AGUUUCUUUUGACAGCUCCAGCACAGUGAAAUGGACAGAAGGGCAGAGCAA, the “exon inclusion enrichment index” value stood at 0.0118.
The value for AGUUAGGGAUGGGAGCUCCAGCACAGUGCAAUGGACAGAAGGGCAGAGCAA was 0.00344; that for AGUUGAAGAAGGGAGCUCCAGCACAGUGAAAUGGACAGAAGAACAGAGCAA was 2.97; that for AGUUACCACUAGGAGCUCCAGCACAGUGAAAUGGACAGAAGGGCAGAGCAA was 0.186.
The value for AGUUACCUACGGGAGCUCCAGCACAGUGAAAUGGACAGAAGGGCAGAGCAA was 1.23; that for AGUUUCUUUUGGGAGCUCCAGCACAGUGAAAUGGACAGAACCGCAGAGCAA was 0.753.
The value for AGUUCUUCUCGGGAGCUCGAGCACAGUGAAAUGGACAGAAGGGCAGAGCAA was 1.61; that for AGUUGCUGCUGGGAGCUCCAGCACAGUGAAAUCGACAGAAGGGCAGAGCAA was 0.179.
For the variant AGUUAUAUAUGGGAGCUUAAGCACAGUGAAAUGGACAGAAGGGCAGAGCAA, the “exon inclusion enrichment index” value was 0.00119.
The value for AGUUGACGACGGGAGCUCCAGCACAGUUCAAUGGACAGAAGGGCAGAGCAA was 2.72; that for AGUUCACACAGGGAGCUCCAGCACAGUGAAAUGGACAGAAGGCAAGAGCAA was 0.602.
The value for AGUUGCUGCUGGGAGCUCCACGACAGUGAAAUGGACAGAAGGGCAGAGCAA was 3.35.
The value for AGUUCACACAGGGAGCUCCAGCACAGUGAAUUGGACAGAAGGGCAGAGCAA was 0.094; that for AGUUGCUGCUGGGAGCUCCCGCACAGUGAAAUGGACAGAAGGGCAGAGCAA was 2.03; that for AGUUCGCGCGAGGAGCUCCAGCACAGUGAAAUGGACAGAAGGGCAGAGCAA was 2.98.
With AGUUCACACAGGGAGCUCCAGCACAGUGAAAUGGACAGAAGGGGAGAGCAA, the “exon inclusion enrichment index” value turned out to be 0.198.
